For experiment [1], the target named is T1, ヒトFcγRIIa (R) (human, UniProt P12318 34-217).
T1 construct: extracellular domain; N-glycans trimmed with Endo F1/F2/F3 for the crystals; also called FcγRIIa R型
T1 sequence (looked up): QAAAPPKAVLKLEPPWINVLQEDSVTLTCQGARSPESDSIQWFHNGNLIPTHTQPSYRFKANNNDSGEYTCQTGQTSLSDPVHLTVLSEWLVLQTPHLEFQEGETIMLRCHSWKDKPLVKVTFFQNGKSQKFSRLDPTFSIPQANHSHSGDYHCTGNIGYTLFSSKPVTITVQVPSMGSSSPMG
Description: SPR, KD; reference IL6R-BP230/IL6R-L. (In SPR one partner is held on a chip, and binding of the other changes the refractive index at the surface.)

Experiment [2] concerns the target T2, ヒトFcγRIIb (human, UniProt P31994 43-217).
T2 construct: extracellular domain; for the crystals it was expressed with kifunensine and its N-glycans trimmed with Endo F1; also called FcγRIIb細胞外領域
T2 sequence (looked up): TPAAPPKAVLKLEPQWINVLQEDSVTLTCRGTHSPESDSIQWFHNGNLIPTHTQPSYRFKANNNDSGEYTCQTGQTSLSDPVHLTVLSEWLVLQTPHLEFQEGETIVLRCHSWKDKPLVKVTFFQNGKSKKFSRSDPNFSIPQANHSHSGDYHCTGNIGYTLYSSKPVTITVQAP
The experiment is described as follows: SPR, KD; reference IL6R-BP230/IL6R-L.

In experiment [3] the target is T3, マウスFcγRI (mouse, UniProt P26151 25-297, limits assumed).
T3 construct: also called mouse FcγRI
T3 sequence (looked up): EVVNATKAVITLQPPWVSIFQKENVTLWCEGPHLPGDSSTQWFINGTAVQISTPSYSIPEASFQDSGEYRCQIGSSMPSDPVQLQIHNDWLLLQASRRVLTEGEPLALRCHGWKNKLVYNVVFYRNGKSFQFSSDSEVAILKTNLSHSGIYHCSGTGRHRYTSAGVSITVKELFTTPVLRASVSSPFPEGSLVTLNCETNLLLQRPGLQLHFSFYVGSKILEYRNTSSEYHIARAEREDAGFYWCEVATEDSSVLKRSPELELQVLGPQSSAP
The experiment is described as follows: SPR, Biacore; antibody captured on immobilised mouse FcRn, FcγR as analyte, pH 7.4, 25C.

The target of experiment [4] is T4, マウスFcγRIIb (mouse, UniProt P08101 30-210, limits assumed).
T4 construct: also called mouse FcγRIIb
T4 sequence (looked up): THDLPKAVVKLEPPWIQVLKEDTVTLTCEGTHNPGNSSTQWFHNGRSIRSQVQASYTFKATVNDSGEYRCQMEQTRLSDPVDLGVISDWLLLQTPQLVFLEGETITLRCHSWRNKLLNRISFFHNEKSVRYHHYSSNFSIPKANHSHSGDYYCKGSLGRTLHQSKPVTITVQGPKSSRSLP
Described as above.

Experiment [5] concerns the target T5, マウスFcγRIII (mouse, UniProt P08508 31-215, limits assumed).
T5 construct: also called mouse FcγRIII
T5 sequence (looked up): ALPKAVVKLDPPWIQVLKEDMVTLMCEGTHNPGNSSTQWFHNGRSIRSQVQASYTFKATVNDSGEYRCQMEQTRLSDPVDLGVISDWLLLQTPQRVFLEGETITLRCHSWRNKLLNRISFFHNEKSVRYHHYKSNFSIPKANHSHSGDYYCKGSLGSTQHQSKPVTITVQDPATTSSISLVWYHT
The experiment is described as above.

Experiment [6] has as its target T2, ヒトFcγRIIb. Description: SPR, KD.
The target of experiment [7] is ヒトFcγRIa (human, UniProt P12314 16-292). The experiment is described as follows: SPR, KD.
ヒトFcγRIa, sequence (P12314 16-292): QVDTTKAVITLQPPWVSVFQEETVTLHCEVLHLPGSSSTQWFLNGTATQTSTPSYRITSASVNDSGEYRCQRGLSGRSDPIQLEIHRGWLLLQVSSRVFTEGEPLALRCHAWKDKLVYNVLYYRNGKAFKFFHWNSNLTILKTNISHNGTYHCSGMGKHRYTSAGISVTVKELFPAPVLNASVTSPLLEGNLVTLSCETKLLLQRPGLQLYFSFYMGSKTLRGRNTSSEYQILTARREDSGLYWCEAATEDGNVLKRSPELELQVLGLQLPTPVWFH
Experiment [8] deals with T6, ヒトFcγRIIa (H) (human, UniProt P12318 34-217).
T6 construct: extracellular domain; also called FcγRIIa H型
T6 sequence (looked up): T1 sequence (looked up) with R134H
The experiment is described as follows: SPR, KD.

Experiment [9] addresses T2, ヒトFcγRIIb. Description: SPR; KD for FcγRIIaR divided by KD for FcγRIIb.
Experiment [10] addresses T2, ヒトFcγRIIb. Description: SPR; KD for FcγRIIaH divided by KD for FcγRIIb.

The text below walks through data of patent JP2014043405A (dated 2014).

Residue numbers refer to the chain shown, from its start.

B1: IL6R-BP478/IL6R-L (antibody)
chain 1: QVQLQESGPGLVKPSETLSLTCAVSGHSISHDHAWSWVRQPPGEGLEWIGFISYSGITNYNPSLQGRVTISRDNSKNTLYLQMNSLRAEDTAVYYCARSLARTTAMDYWGEGTLVTVSSASTKGPSVFPLAPCSRSTSESTAALGCLVKDYFPEPVTVSWNSGALTSGVHTFPAVLQSSGLYSLSSVVTVPSSSLGTKTYTCNVDHKPSNTKVDKRVESKYGPPCPPCPAPDLLGDDSVFLFPPKPKDTLMISRTPEVTCVVVDVSDEDGEVKFNWYVDGVEVHNAKTKPREEQDNSTYRVVSVLTVLHQDWLNGKEYKCKVSNKALPRPIEKTISKAKGQPREPQVYTLPPSRDELTKNQVSLTCLVKGFYPSDIAVEWESNGQPENNYKTTPPVLDSDGSFFLYSKLTVDKSRWQQGNVFSCSVMHEALHNHYTQESLSLSP
chain 2: not shown
Regarding B1, in experiment [1], the “binding relative to IL6R-BP230/IL6R-L” value turned out to be 0.9 fold. Besides, the “fold enhancement of binding against IL6R-BP230/IL6R-L” value in experiment [2] came out at 1.1 fold.

B2: Fv4-IgG1-F20 (antibody)
heavy: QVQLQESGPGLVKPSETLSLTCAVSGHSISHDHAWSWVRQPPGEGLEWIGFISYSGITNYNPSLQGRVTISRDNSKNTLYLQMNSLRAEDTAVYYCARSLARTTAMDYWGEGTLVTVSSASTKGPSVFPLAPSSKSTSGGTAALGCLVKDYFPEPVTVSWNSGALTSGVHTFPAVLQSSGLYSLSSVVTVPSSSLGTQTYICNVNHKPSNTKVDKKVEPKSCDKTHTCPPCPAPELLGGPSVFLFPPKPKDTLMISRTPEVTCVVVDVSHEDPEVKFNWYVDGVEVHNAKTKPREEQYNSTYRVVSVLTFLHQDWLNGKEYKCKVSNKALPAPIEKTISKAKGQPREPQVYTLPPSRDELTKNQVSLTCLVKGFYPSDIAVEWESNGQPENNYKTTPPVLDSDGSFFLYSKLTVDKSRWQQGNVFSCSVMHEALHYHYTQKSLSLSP
light: DIQMTQSPSSLSASVGDSVTITCQASTDISSHLNWYQQKPGKAPELLIYYGSHLLSGVPSRFSGSGSGTDFTFTISSLEAEDAATYYCGQGNRLPYTFGQGTKVEIERTVAAPSVFIFPPSDEQLKSGTASVVCLLNNFYPREAKVQWKVDNALQSGNSQESVTEQDSKDSTYSLSSTLTLSKADYEKHKVYACEVTHQGLSSPVTKSFNRGEC
notes: also called VH3-IgG1-F20/VL3-CK
For the molecule B2, the binding result in experiment [3], in experiment [4] and in experiment [5] was “binds” throughout.

B3: IL6R-BP464/IL6R-L (antibody, human IgG1)
heavy: QVQLQESGPGLVKPSETLSLTCAVSGHSISHDHAWSWVRQPPGEGLEWIGFISYSGITNYNPSLQGRVTISRDNSKNTLYLQMNSLRAEDTAVYYCARSLARTTAMDYWGEGTLVTVSSASTKGPSVFPLAPSSKSTSGGTAALGCLVKDYFPEPVTVSWNSGALTSGVHTFPAVLQSSGLYSLSSVVTVPSSSLGTQTYICNVNHKPSNTKVDKKVEPKSCDKTHTCPPCPAPDLLGDDSVFLFPPKPKDTLMISRTPEVTCVVVDVAEEDGEVKFNWYVDGVEVHNAKTKPREEQYNSTYRVVSVLTVLHQDWLNGKEYKCKVSNKALPRPIEKTISKAKGQPREPQVYTLPPSRDELTKNQVSLTCLVKGFYPSDIAVEWESNGQPENNYKTTPYVLDSDGSFFLYSKLTVDKSRWQQGNVFSCSVMHEALHNHYTQESLSLSP
light: DIQMTQSPSSLSASVGDRVTITCRASQDISSYLNWYQQKPGKAPKLLIYYTSRLHSGVPSRFSGSGSGTDFTFTISSLQPEDIATYYCQQGNTLPYTFGQGTKVEIK
Regarding B3, the binding result in experiment [6] was “binds”.

B4: IL6R-G4d/IL6R-L (antibody, human IgG4 S228P)
heavy: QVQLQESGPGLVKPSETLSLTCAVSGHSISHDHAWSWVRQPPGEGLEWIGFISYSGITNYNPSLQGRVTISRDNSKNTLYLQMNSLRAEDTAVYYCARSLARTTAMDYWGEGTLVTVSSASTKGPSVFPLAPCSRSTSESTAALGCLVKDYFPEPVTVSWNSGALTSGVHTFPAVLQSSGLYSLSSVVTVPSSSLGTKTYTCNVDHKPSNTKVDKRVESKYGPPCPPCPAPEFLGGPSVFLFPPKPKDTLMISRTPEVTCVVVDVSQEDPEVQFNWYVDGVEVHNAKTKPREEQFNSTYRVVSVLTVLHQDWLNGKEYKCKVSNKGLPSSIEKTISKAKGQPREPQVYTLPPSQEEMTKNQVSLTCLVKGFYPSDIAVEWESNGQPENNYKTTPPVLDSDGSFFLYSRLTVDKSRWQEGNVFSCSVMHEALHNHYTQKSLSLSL
light: B3 light
With B4, the binding result in experiment [7] and in experiment [8] was “binds” each time.

B5: IL6R-BP231/IL6R-L (antibody)
chain 1: B3 heavy with D235E, A269S, E270D, Y298D, Y398P
chain 2: not shown
With B5, the “KD (IIaR)/KD (IIb)” value in experiment [9] is 32.2 ratio.

B6: IL6R-BP479/IL6R-L (antibody)
chain 1: B3 heavy with V266I, V268L, R332A, Y398P
chain 2: not shown
For B6, the “KD (IIaR)/KD (IIb)” value in [9] stood at 16.1 ratio.

B7: IL6R-BP493/IL6R-L (antibody)
chain 1: B3 heavy with D235E, D239G, V266I, Y298D, R332A, Y398P
chain 2: not shown
In the case of B7, in [9], the “KD (IIaR)/KD (IIb)” value worked out at 52.1 ratio.

B8: IL6R-BP426/IL6R-L (antibody)
chain 1: B3 heavy with E271D, Y398P
chain 2: not shown
In the case of B8, in experiment [10], the “KD (IIaH)/KD (IIb)” value is 8360 ratio.

B9: IL6R-BP473/IL6R-L (antibody)
chain 1: B3 heavy with A269S, E270D, Y298D, A329G, Y398P
chain 2: not shown
Consider B9, for which the “fold enhancement of binding against IL6R-BP230/IL6R-L” value in [2] was determined as 1.2 fold.

B10: IL6R-BP234/IL6R-L (antibody)
chain 1: B3 heavy with L236Y, A269Q, E270D, Y298D, K328D, R332K, Y398P
chain 2: not shown
Take B10: in experiment [9], the “KD (IIaR)/KD (IIb)” value came out at 10 ratio.

B11: IL6R-BP480/IL6R-L (antibody)
chain 1: B3 heavy with V268L, A269S, E271D, R332A, Y398P
chain 2: not shown
For B11, the “KD (IIaH)/KD (IIb)” value in [10] worked out at 108 ratio.

B12: IL6R-BP253/IL6R-L (antibody, human IgG1)
heavy: B3 heavy with D235E, D239G, D240P, A269E, E270H, G273P, L330F, R332A, Y398P
light: B3 light
notes: comparison antibody with the known FcγRIIb-enhancing substitutions
Consider B12, for which the binding result in [7] and in experiment [8] was “binds” throughout.

B13: mPM1-mIgG1-mF3 (antibody)
heavy: DVQLQESGPVLVKPSQSLSLTCTVTGYSITSDHAWSWIRQFPGNKLEWMGYISYSGITTYNPSLKSRISITRDTSKNQFFLQLNSVTTGDTSTYYCARSLARTTAMDYWGQGTSVTVSSAKTTPPSVYPLAPGSAAQTNSMVTLGCLVKGYFPEPVTVTWNSGSLSSGVHTFPAVLQSDLYTLSSSVTVPSSTWPSETVTCNVAHPASSTKVDKKIVPRDCGCKPCICTVPEVSSVFIFPPKPKDVLYITLEPKVTCVVVDISKDDPEVQFSWFVDDVEVHTAQTQPREEQFNSTFRSVSELPIMHQDWLNGKEFKCRVNSAAFPAPIEKTISKTKGRPKAPQVYTIPPPKEQMAKDKVSLTCMITDFFPEDITVEWQWNGQPAENYKNTQPIMDTDGSYFVYSKLNVQKSNWEAGNTFTCSVLHEGLKFHHTEKSLSHSPGK
light: DIQMTQTTSSLSASLGDRVTISCRASQDISSYLNWYQQKPDGTIKLLIYYTSRLHSGVPSRFSGSGSGTDYSLTINNLEQEDIATYFCQQGNTLPYTFGGGTKLEIKRADAAPTVSIFPPSSEQLTSGGASVVCFLNNFYPKDINVKWKIDGSERQNGVLNSWTDQDSKDSTYSMSSTLTLTKDEYERHNSYTCEATHKTSTSPIVKSFNRNEC
notes: mouse IgG1; also called mPM1H-mIgG1-mF3/mPM1L-mk1
Take B13: the binding result in [3] was “no binding”; in [4] it was “binds”; in [5] it was “binds”.
